Molecular target: the molecule itself
Experiment: co-sedimentation

B1: apoA-IV 1‒70/K58E variant (domain or fragment, human)
chain: GPEVSADQVATVMWDYFSQLSNNAKEAVEHLQKSELTQQLNALFQDKLGEVNTYAGDLQEKLVPFATELHER
  binding result: binds

Source: publication PMC12003865 (Scientific Reports, 2025)
